T1: PDZD4, Q76G19
T1 sequence (Q76G19 125-224, limits assumed, looked up): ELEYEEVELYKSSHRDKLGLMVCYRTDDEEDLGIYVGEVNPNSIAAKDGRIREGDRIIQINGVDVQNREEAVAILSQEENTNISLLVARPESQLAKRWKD

T2: MPP5, Q8N3R9
T2 sequence (Q8N3R9 251-346, limits assumed, looked up): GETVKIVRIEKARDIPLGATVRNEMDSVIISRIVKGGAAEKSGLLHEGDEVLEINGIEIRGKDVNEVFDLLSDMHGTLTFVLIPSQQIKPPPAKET

T3: SHROOM2, Q13796
T3 sequence (Q13796 21-118, limits assumed, looked up): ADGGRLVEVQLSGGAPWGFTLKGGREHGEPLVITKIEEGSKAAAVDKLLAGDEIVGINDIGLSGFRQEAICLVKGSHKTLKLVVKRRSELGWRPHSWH

T4: MAGI2_1, Q86UL8
T4 sequence (Q86UL8 12-111, limits assumed, looked up): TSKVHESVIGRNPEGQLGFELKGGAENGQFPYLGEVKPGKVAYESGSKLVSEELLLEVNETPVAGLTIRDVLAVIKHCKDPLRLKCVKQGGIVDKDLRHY

T5: PTPN4, P29074
T5 sequence (P29074 512-599, limits assumed, looked up): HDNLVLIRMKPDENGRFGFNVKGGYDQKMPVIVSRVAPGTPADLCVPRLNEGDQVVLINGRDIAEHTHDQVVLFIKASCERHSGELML

T6: SHROOM3, Q8TF72
T6 sequence (Q8TF72 20-120, limits assumed, looked up): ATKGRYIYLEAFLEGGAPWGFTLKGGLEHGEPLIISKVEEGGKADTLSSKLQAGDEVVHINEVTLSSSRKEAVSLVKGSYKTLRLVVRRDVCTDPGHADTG

T7: APBA3_2, O96018
T7 sequence (O96018 480-570, limits assumed, looked up): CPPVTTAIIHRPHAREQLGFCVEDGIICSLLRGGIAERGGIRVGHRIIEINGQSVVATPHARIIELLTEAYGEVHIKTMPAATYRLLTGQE

T8: PCLO, Q9Y6V0
T8 sequence (Q9Y6V0 4491-4600, limits assumed, looked up): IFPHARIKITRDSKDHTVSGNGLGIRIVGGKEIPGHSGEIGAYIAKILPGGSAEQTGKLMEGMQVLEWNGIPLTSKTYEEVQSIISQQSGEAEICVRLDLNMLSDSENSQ

T9: MPDZ_2, O75970
T9 sequence (O75970 252-347, limits assumed, looked up): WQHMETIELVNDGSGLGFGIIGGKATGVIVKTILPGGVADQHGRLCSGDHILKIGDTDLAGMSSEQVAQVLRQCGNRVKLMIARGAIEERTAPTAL

T10: MPDZ_12, O75970
T10 sequence (O75970 1857-1958, limits assumed, looked up): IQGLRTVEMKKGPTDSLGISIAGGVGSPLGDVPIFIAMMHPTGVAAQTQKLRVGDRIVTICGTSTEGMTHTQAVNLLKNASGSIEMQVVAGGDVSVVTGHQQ

T11: PDZD8, Q8NEN9
T11 sequence (Q8NEN9 361-459, limits assumed, looked up): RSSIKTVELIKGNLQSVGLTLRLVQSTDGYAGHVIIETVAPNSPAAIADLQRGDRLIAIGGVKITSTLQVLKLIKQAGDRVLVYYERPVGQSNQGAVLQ

T12: DVL1, O14640
T12 sequence (O14640 246-333, limits assumed, looked up): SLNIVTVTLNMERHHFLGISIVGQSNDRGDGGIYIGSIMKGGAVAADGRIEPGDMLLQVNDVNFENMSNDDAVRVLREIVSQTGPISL


Target: T1, PDZD4, Q76G19
Experiment: holdup assay
Set-up: key: below the threshold = too weak to quantify, mostly under pKd 3.1 to 4
Conditions: plain residues with an end cap or a label only (N-terminal biotin on a linker: ttds)

Binder	pKd
MERLRVETDV [ARHGEF16, Q5VV41]	below the threshold
HIVEALETDV [PBK, Q96KB5]	below the threshold

Target: T2, MPP5, Q8N3R9
Experiment: holdup assay
Set-up: key: below the threshold = too weak to quantify, mostly under pKd 3.1 to 4
Conditions: plain residues with an end cap or a label only (N-terminal biotin on a linker: ttds)

Binder	pKd
MERLRVETDV [ARHGEF16, Q5VV41]	below the threshold
HIVEALETDV [PBK, Q96KB5]	below the threshold

Target: PARD3_1, Q8TEW0
Experiment: holdup assay
Set-up: key: below the threshold = too weak to quantify, mostly under pKd 3.1 to 4
Conditions: plain residues with an end cap or a label only (N-terminal biotin on a linker: ttds)

PARD3_1, Q8TEW0, sequence (Q8TEW0 264-372): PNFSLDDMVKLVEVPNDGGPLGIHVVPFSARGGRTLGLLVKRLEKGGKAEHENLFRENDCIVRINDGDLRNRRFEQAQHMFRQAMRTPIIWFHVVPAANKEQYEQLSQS

Binder	pKd
MERLRVETDV [ARHGEF16, Q5VV41]	below the threshold
HIVEALETDV [PBK, Q96KB5]	below the threshold

Target: T3, SHROOM2, Q13796
Experiment: holdup assay
Set-up: key: below the threshold = too weak to quantify, mostly under pKd 3.1 to 4
Conditions: plain residues with an end cap or a label only (N-terminal biotin on a linker: ttds)

Binder	pKd
MERLRVETDV [ARHGEF16, Q5VV41]	below the threshold
HIVEALETDV [PBK, Q96KB5]	below the threshold

Target: T4, MAGI2_1, Q86UL8
Experiment: holdup assay
Set-up: key: below the threshold = too weak to quantify, mostly under pKd 3.1 to 4
Conditions: plain residues with an end cap or a label only (N-terminal biotin on a linker: ttds)

Binder	pKd
MERLRVETDV [ARHGEF16, Q5VV41]	below the threshold
HIVEALETDV [PBK, Q96KB5]	below the threshold

Target: MAST3, O60307
Experiment: holdup assay
Set-up: key: below the threshold = too weak to quantify, mostly under pKd 3.1 to 4
Conditions: plain residues with an end cap or a label only (N-terminal biotin on a linker: ttds)

MAST3, O60307, sequence (O60307 945-1048): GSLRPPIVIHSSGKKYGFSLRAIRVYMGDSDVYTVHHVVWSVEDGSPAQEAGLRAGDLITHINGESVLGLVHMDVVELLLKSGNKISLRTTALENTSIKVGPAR

Binder	pKd
MERLRVETDV [ARHGEF16, Q5VV41]	below the threshold
HIVEALETDV [PBK, Q96KB5]	below the threshold

Target: T5, PTPN4, P29074
Experiment: holdup assay
Set-up: key: below the threshold = too weak to quantify, mostly under pKd 3.1 to 4
Conditions: plain residues with an end cap or a label only (N-terminal biotin on a linker: ttds)

Binder	pKd
MERLRVETDV [ARHGEF16, Q5VV41]	4.25
HIVEALETDV [PBK, Q96KB5]	below the threshold

Target: TJP1_3, Q07157
Experiment: holdup assay
Set-up: key: below the threshold = too weak to quantify, mostly under pKd 3.1 to 4
Conditions: plain residues with an end cap or a label only (N-terminal biotin on a linker: ttds)

TJP1_3, Q07157, sequence (Q07157 416-512): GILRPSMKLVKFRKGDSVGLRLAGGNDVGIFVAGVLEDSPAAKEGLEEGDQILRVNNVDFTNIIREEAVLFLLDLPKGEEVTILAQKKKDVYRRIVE

Binder	pKd
MERLRVETDV [ARHGEF16, Q5VV41]	below the threshold
HIVEALETDV [PBK, Q96KB5]	below the threshold

Target: MAGI3_3, Q5TCQ9
Experiment: holdup assay
Set-up: key: below the threshold = too weak to quantify, mostly under pKd 3.1 to 4
Conditions: plain residues with an end cap or a label only (N-terminal biotin on a linker: ttds)

MAGI3_3, Q5TCQ9, sequence (Q5TCQ9 572-655): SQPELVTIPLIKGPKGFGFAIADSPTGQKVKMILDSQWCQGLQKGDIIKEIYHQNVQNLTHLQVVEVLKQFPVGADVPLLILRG

Binder	pKd
MERLRVETDV [ARHGEF16, Q5VV41]	below the threshold
HIVEALETDV [PBK, Q96KB5]	4.33

Target: NHERF4_3, Q86UT5
Experiment: holdup assay
Set-up: key: below the threshold = too weak to quantify, mostly under pKd 3.1 to 4
Conditions: plain residues with an end cap or a label only (N-terminal biotin on a linker: ttds)

NHERF4_3, Q86UT5, sequence (Q86UT5 325-412): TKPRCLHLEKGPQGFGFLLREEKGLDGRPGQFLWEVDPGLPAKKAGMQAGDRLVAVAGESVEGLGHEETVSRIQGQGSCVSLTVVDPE

Binder	pKd
MERLRVETDV [ARHGEF16, Q5VV41]	below the threshold
HIVEALETDV [PBK, Q96KB5]	below the threshold

Target: Inadl_7, Q8NI35
Experiment: holdup assay
Set-up: key: below the threshold = too weak to quantify, mostly under pKd 3.1 to 4
Conditions: plain residues with an end cap or a label only (N-terminal biotin on a linker: ttds)

Inadl_7, Q8NI35, sequence (Q8NI35 1219-1332): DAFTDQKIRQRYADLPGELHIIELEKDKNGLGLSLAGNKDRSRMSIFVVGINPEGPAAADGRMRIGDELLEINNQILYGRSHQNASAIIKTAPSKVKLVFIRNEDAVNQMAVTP

Binder	pKd
MERLRVETDV [ARHGEF16, Q5VV41]	below the threshold
HIVEALETDV [PBK, Q96KB5]	4.4

Target: T6, SHROOM3, Q8TF72
Experiment: holdup assay
Set-up: key: below the threshold = too weak to quantify, mostly under pKd 3.1 to 4
Conditions: plain residues with an end cap or a label only (N-terminal biotin on a linker: ttds)

Binder	pKd
MERLRVETDV [ARHGEF16, Q5VV41]	below the threshold
HIVEALETDV [PBK, Q96KB5]	below the threshold

Target: MAGI3_5, Q5TCQ9
Experiment: holdup assay
Set-up: key: below the threshold = too weak to quantify, mostly under pKd 3.1 to 4
Conditions: plain residues with an end cap or a label only (N-terminal biotin on a linker: ttds)

MAGI3_5, Q5TCQ9, sequence (Q5TCQ9 847-941): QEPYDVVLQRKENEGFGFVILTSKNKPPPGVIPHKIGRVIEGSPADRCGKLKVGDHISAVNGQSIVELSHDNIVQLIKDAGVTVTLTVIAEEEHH

Binder	pKd
MERLRVETDV [ARHGEF16, Q5VV41]	below the threshold
HIVEALETDV [PBK, Q96KB5]	below the threshold

Target: T7, APBA3_2, O96018
Experiment: holdup assay
Set-up: key: below the threshold = too weak to quantify, mostly under pKd 3.1 to 4
Conditions: plain residues with an end cap or a label only (N-terminal biotin on a linker: ttds)

Binder	pKd
MERLRVETDV [ARHGEF16, Q5VV41]	below the threshold
HIVEALETDV [PBK, Q96KB5]	below the threshold

Target: T8, PCLO, Q9Y6V0
Experiment: holdup assay
Set-up: key: below the threshold = too weak to quantify, mostly under pKd 3.1 to 4
Conditions: plain residues with an end cap or a label only (N-terminal biotin on a linker: ttds)

Binder	pKd
MERLRVETDV [ARHGEF16, Q5VV41]	below the threshold
HIVEALETDV [PBK, Q96KB5]	below the threshold

Target: RIMS2, Q9UQ26
Experiment: holdup assay
Set-up: key: below the threshold = too weak to quantify, mostly under pKd 3.1 to 4
Conditions: plain residues with an end cap or a label only (N-terminal biotin on a linker: ttds)

RIMS2, Q9UQ26, sequence (Q9UQ26 637-758): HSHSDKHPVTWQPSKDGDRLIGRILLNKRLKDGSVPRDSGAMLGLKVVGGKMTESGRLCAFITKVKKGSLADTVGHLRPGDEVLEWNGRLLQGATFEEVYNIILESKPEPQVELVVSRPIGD

Binder	pKd
MERLRVETDV [ARHGEF16, Q5VV41]	below the threshold
HIVEALETDV [PBK, Q96KB5]	below the threshold

Target: SDCBP_1, O00560
Experiment: holdup assay
Set-up: key: below the threshold = too weak to quantify, mostly under pKd 3.1 to 4
Conditions: plain residues with an end cap or a label only (N-terminal biotin on a linker: ttds)

SDCBP_1, O00560, sequence (O00560 111-198): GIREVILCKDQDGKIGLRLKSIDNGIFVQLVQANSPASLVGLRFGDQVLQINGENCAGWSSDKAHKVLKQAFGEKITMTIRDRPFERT

Binder	pKd
MERLRVETDV [ARHGEF16, Q5VV41]	below the threshold
HIVEALETDV [PBK, Q96KB5]	below the threshold

Target: T9, MPDZ_2, O75970
Experiment: holdup assay
Set-up: key: below the threshold = too weak to quantify, mostly under pKd 3.1 to 4
Conditions: plain residues with an end cap or a label only (N-terminal biotin on a linker: ttds)

Binder	pKd
MERLRVETDV [ARHGEF16, Q5VV41]	below the threshold
HIVEALETDV [PBK, Q96KB5]	below the threshold

Target: T10, MPDZ_12, O75970
Experiment: holdup assay
Set-up: key: below the threshold = too weak to quantify, mostly under pKd 3.1 to 4
Conditions: plain residues with an end cap or a label only (N-terminal biotin on a linker: ttds)

Binder	pKd
MERLRVETDV [ARHGEF16, Q5VV41]	below the threshold
HIVEALETDV [PBK, Q96KB5]	below the threshold

Target: T11, PDZD8, Q8NEN9
Experiment: holdup assay
Set-up: key: below the threshold = too weak to quantify, mostly under pKd 3.1 to 4
Conditions: plain residues with an end cap or a label only (N-terminal biotin on a linker: ttds)

Binder	pKd
MERLRVETDV [ARHGEF16, Q5VV41]	below the threshold
HIVEALETDV [PBK, Q96KB5]	below the threshold

Target: T12, DVL1, O14640
Experiment: holdup assay
Set-up: key: below the threshold = too weak to quantify, mostly under pKd 3.1 to 4
Conditions: plain residues with an end cap or a label only (N-terminal biotin on a linker: ttds)

Binder	pKd
MERLRVETDV [ARHGEF16, Q5VV41]	below the threshold
HIVEALETDV [PBK, Q96KB5]	below the threshold

Target: PTPN13_2, Q12923
Experiment: holdup assay
Set-up: key: below the threshold = too weak to quantify, mostly under pKd 3.1 to 4
Conditions: plain residues with an end cap or a label only (N-terminal biotin on a linker: ttds)

PTPN13_2, Q12923, sequence (Q12923 1363-1462): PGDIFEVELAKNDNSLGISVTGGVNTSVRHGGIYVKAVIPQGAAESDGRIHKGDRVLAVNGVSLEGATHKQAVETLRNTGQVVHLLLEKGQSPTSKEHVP

Binder	pKd
MERLRVETDV [ARHGEF16, Q5VV41]	below the threshold
HIVEALETDV [PBK, Q96KB5]	below the threshold

Target: GRIP2_2, Q9C0E4
Experiment: holdup assay
Set-up: key: below the threshold = too weak to quantify, mostly under pKd 3.1 to 4
Conditions: plain residues with an end cap or a label only (N-terminal biotin on a linker: ttds)

GRIP2_2, Q9C0E4, sequence (Q9C0E4 137-245): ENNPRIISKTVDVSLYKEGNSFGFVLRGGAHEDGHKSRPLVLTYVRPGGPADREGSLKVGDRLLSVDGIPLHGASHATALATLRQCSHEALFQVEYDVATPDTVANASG

Binder	pKd
MERLRVETDV [ARHGEF16, Q5VV41]	below the threshold
HIVEALETDV [PBK, Q96KB5]	below the threshold

Target: MAGI3_6, Q5TCQ9
Experiment: holdup assay
Set-up: key: below the threshold = too weak to quantify, mostly under pKd 3.1 to 4
Conditions: plain residues with an end cap or a label only (N-terminal biotin on a linker: ttds)

MAGI3_6, Q5TCQ9, sequence (Q5TCQ9 1014-1103): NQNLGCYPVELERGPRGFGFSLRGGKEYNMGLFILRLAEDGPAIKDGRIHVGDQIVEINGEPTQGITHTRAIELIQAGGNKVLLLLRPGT

Binder	pKd
MERLRVETDV [ARHGEF16, Q5VV41]	below the threshold
HIVEALETDV [PBK, Q96KB5]	4.62

Target: PDZD9, Q8IXQ8
Experiment: holdup assay
Set-up: key: below the threshold = too weak to quantify, mostly under pKd 3.1 to 4
Conditions: plain residues with an end cap or a label only (N-terminal biotin on a linker: ttds)

PDZD9, Q8IXQ8, sequence (Q8IXQ8 23-120): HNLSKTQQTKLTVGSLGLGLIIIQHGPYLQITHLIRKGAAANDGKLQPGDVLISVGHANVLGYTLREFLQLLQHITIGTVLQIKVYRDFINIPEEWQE

Binder	pKd
MERLRVETDV [ARHGEF16, Q5VV41]	below the threshold
HIVEALETDV [PBK, Q96KB5]	below the threshold

From publication PMC9482650, “Quantitative fragmentomics allow affinity mapping of interactomes” (Nature Communications, 2022)
